These results are taken from doi:10.1101/2021.10.29.466147 (bioRxiv, 2021).

Experiment [1] concerns the target T1, Smc4 V721C, R1417C (SMC-kleisin ring circularization in vitro) (S. cerevisiae, UniProt Q12267 1-1418, V721C | R1417C).
T1 sequence: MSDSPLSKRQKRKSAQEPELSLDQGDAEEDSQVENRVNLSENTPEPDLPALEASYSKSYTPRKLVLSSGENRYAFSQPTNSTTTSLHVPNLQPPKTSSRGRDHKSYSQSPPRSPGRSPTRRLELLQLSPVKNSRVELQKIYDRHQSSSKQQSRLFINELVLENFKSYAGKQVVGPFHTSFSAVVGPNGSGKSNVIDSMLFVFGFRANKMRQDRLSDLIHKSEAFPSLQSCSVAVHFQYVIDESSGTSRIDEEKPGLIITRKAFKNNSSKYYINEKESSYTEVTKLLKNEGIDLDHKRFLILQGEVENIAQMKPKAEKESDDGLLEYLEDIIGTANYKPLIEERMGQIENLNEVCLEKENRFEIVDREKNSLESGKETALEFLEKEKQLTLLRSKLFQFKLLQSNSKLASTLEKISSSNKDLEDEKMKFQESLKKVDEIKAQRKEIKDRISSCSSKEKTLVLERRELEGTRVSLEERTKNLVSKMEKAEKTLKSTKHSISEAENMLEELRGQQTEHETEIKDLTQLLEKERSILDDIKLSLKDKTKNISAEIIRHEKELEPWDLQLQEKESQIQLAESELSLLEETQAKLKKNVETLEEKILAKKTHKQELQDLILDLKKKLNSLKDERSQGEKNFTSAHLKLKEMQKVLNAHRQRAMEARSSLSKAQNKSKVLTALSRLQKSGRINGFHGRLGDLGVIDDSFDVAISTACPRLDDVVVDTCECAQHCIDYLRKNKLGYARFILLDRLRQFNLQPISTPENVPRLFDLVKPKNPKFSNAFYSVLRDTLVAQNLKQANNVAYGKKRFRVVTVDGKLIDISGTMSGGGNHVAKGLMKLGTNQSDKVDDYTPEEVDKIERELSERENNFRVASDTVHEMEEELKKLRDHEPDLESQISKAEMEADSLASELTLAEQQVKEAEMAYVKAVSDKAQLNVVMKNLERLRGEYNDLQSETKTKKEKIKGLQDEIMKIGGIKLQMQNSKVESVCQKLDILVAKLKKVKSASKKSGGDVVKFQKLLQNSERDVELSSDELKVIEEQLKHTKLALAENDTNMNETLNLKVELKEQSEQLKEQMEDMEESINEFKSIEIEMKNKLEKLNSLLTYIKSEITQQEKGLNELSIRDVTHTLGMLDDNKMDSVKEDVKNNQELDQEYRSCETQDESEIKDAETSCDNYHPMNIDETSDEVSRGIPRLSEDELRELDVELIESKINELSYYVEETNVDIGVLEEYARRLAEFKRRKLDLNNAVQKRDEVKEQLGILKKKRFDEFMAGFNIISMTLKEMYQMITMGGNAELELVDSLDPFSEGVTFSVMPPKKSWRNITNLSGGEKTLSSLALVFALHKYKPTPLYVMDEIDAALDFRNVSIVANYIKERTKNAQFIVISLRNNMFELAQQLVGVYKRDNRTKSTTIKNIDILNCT
Description: cross-linking.

Experiment [2] concerns the target T2, Ycs4, HEAT-repeat subunit I of S. cerevisiae condensin (S. cerevisiae, UniProt Q06156 1-1176).
T2 sequence: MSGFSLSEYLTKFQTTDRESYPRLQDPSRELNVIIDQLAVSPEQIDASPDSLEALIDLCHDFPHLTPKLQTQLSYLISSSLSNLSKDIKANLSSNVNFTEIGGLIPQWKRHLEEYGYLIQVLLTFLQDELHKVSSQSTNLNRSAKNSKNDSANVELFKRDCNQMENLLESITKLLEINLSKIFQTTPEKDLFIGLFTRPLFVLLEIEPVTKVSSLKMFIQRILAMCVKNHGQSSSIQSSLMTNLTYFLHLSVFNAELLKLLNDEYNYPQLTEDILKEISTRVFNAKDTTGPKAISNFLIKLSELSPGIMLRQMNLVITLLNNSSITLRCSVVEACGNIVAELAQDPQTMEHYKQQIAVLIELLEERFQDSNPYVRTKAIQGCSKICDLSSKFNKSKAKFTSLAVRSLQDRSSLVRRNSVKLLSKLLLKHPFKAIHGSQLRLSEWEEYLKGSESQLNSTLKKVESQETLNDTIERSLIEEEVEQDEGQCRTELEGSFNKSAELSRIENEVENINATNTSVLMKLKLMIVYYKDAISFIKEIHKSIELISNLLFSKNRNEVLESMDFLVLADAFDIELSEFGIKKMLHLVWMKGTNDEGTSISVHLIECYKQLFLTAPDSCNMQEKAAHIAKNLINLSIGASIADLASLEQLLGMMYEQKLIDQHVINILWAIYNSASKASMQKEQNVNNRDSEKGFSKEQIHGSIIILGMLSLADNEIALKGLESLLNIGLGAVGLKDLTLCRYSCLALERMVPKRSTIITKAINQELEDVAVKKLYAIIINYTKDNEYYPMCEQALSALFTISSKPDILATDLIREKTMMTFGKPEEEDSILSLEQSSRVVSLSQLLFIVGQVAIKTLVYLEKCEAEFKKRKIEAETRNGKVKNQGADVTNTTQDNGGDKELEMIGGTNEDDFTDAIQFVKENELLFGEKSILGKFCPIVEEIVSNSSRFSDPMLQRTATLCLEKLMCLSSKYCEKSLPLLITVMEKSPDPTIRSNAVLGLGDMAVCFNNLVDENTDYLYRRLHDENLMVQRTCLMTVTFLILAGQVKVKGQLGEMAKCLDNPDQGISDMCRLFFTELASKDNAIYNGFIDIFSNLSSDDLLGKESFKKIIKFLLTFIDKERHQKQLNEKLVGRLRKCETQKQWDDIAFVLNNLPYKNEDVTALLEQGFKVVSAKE
As to the kind of experiment: cryo-EM structure.

B1: Brn1 K709C, the Brn1 part of the Smc2–TEV–Brn1 fusion (SMC-kleisin ring circularization in vitro) (natural protein, S. cerevisiae)
chain: MTTQLRYENNDDDERVEYNLFTNRSTMMANFEEWIKMATDNKINSRNSWNFALIDYFYDLDVLKDGENNINFQKASATLDGCIKIYSSRVDSVTTETGKLLSGLAQRKTNGASNGDDSNGGNGEGLGGDSDEANIEIDPLTGMPISNDPDVNNTRRRVYNRVLETTLVEFETIKMKELDQELIIDPLFKKALVDFDEGGAKSLLLNTLNIDNTARVIFDASIKDTQNVGQGKLQRKEEELIERDSLVDDENEPSQSLISTRNDSTVNDSVISAPSMEDEILSLGMDFIKFDQIAVCEISGSIEQLRNVVEDINQAKDFIENVNNRFDNFLTEEELQAAVPDNAEDDSDGFDMGMQQELCYPDENHDNTSHDEQDDDNVNSTTGSIFEKDLMAYFDENLNRNWRGREHWKVRNFKKANLVNKESDLLEETRTTIGDTTDKNTTDDKSMDTKKKHKQKKVLEIDFFKTDDSFEDKVFASKGRTKIDMPIKNRKNDTHYLLPDDFHFSTDRITRLFIKPGQKMSLFSHRKHTRGDVSSGLFEKSTVSANHSNNDIPTIADEHFWADNYERKEQEEKEKEQSKEVGDVVGGALDNPFEDDMDGVDFNQAFEGTDDNEEASVKLDLQDDEDHKFPIRENKVTYSRVSKKVDVRRLKKNVWRSINNLIQEHDSRKNREQSSNDSETHTEDESTKELKFSDIIQGISKMYSDDTLCDISTSFCFICLLHLANEHGLQITHTENYNDLIVNYEDLATTQAAS
In the case of B1, in experiment [1], the binding result was “binds”.

B2: Smc2 K639C, the Smc2 part of the Smc2–TEV–Brn1 fusion (SMC-kleisin ring circularization in vitro) (natural protein, S. cerevisiae)
chain: MKVEELIIDGFKSYATRTVITDWDPQFNAITGLNGSGKSNILDAICFVLGIASMSTVRASSLQDLIYKRGQAGVTKASVTIVFDNTDKSNSPIGFTNSPQISVTRQVVLGGTSKYLINGHRAPQQSVLQLFQSVQLNINNPNFLIMQGKITKVLNMKPSEILSLIEEAAGTKMFEDRREKAERTMSKKETKLQENRTLLTEEIEPKLEKLRNEKRMFLEFQSTQTDLEKTERIVVSYEYYNIKHKHTSIRETLENGETRMKMLNEFVKKTSEEIDSLNEDVEEIKLQKEKELHKEGTISKLENKENGLLNEISRLKTSLSIKVENLNDTTEKSKALESEIASSSAKLIEKKSAYANTEKDYKMVQEQLSKQRDLYKRKEELVSTLTTGISSTGAADGGYNAQLAKAKTELNEVSLAIKKSSMKMELLKKELLTIEPKLKEATKDNELNVKHVKQCQETCDKLRARLVEYGFDPSRIKDLKQREDKLKSHYYQTCKNSEYLKRRVTNLEFNYTKPYPNFEASFVHGVVGQLFQIDNDNIRYATALQTCAGGRLFNVVVQDSQTATQLLERGRLRKRVTIIPLDKIYTRPISSQVLDLAKKIAPGKVELAINLIRFDESITKAMEFIFGNSLICEDPETACKITFHPKIRARSITLQGDVYDPEGTLSGGSRNTSESLLVDIQKYNQIQKQIETIQADLNHVTEELQTQYATSQKTKTIQSDLNLSLHKLDLAKRNLDANPSSQIIARNEEILRDIGECENEIKTKQMSLKKCQEEVSTIEKDMKEYDSDKGSKLNELKKELKLLAKELEEQESESERKYDLFQNLELETEQLSSELDSNKTLLHNHLKSIESLKLENSDLEGKIRGVEDDLVTVQTELNEEKKRLMDIDDELNELETLIKKKQDEKKSSELELQKLVHDLNKYKSNTNNMEKIIEDLRQKHEFLEDFDLVRNIVKQNEGIDLDTYRERSKQLNEKFQELRKKVNPNIMNMIENVEKKEAALKTMIKTIEKDKMKIQETISKLNEYKRETLVKTWEKVTLDFGNIFADLLPNSFAKLVPCEGKDVTQGLEVKVKLGNIWKESLIELSGGQRSLIALSLIMALLQFRPAPMYILDEVDAALDLSHTQNIGHLIKTRFKGSQFIVVSLKEGMFANANRVFRTRFQDGTSVVSIM
As for B2, the binding result in experiment [1] is reported as “binds”.

B3: Smc2 E1113Q (Walker B mutant, EQ) of the S. cerevisiae condensin holo complex (natural protein)
chain: MKVEELIIDGFKSYATRTVITDWDPQFNAITGLNGSGKSNILDAICFVLGIASMSTVRASSLQDLIYKRGQAGVTKASVTIVFDNTDKSNSPIGFTNSPQISVTRQVVLGGTSKYLINGHRAPQQSVLQLFQSVQLNINNPNFLIMQGKITKVLNMKPSEILSLIEEAAGTKMFEDRREKAERTMSKKETKLQENRTLLTEEIEPKLEKLRNEKRMFLEFQSTQTDLEKTERIVVSYEYYNIKHKHTSIRETLENGETRMKMLNEFVKKTSEEIDSLNEDVEEIKLQKEKELHKEGTISKLENKENGLLNEISRLKTSLSIKVENLNDTTEKSKALESEIASSSAKLIEKKSAYANTEKDYKMVQEQLSKQRDLYKRKEELVSTLTTGISSTGAADGGYNAQLAKAKTELNEVSLAIKKSSMKMELLKKELLTIEPKLKEATKDNELNVKHVKQCQETCDKLRARLVEYGFDPSRIKDLKQREDKLKSHYYQTCKNSEYLKRRVTNLEFNYTKPYPNFEASFVHGVVGQLFQIDNDNIRYATALQTCAGGRLFNVVVQDSQTATQLLERGRLRKRVTIIPLDKIYTRPISSQVLDLAKKIAPGKVELAINLIRFDESITKAMEFIFGNSLICEDPETAKKITFHPKIRARSITLQGDVYDPEGTLSGGSRNTSESLLVDIQKYNQIQKQIETIQADLNHVTEELQTQYATSQKTKTIQSDLNLSLHKLDLAKRNLDANPSSQIIARNEEILRDIGECENEIKTKQMSLKKCQEEVSTIEKDMKEYDSDKGSKLNELKKELKLLAKELEEQESESERKYDLFQNLELETEQLSSELDSNKTLLHNHLKSIESLKLENSDLEGKIRGVEDDLVTVQTELNEEKKRLMDIDDELNELETLIKKKQDEKKSSELELQKLVHDLNKYKSNTNNMEKIIEDLRQKHEFLEDFDLVRNIVKQNEGIDLDTYRERSKQLNEKFQELRKKVNPNIMNMIENVEKKEAALKTMIKTIEKDKMKIQETISKLNEYKRETLVKTWEKVTLDFGNIFADLLPNSFAKLVPCEGKDVTQGLEVKVKLGNIWKESLIELSGGQRSLIALSLIMALLQFRPAPMYILDQVDAALDLSHTQNIGHLIKTRFKGSQFIVVSLKEGMFANANRVFRTRFQDGTSVVSIM
On to B3, for which, in experiment [2], the binding result was “binds”.
